# Results published in the DeepSol protein solubility set.
# Experiment: soluble on expression in E. coli; label from the status in PepcDB or PDB records
row,Sequence,soluble on expression in E. coli
1,QTKIYESYKLPDYLKDKIKNNNHAEMDENDLDNKIFYKPNVAAHSQFIDYKYNGNHSVEIKFETDAIEVYEIRPVSIATITHVTIPNDCASNNSNSNECVLIIHVWNNSKFVGSNFSCSIACTNKETDQLASHINPIAPVRAFIGPNKNYAFYFIIKFLINKEITTLCKAIVKDSNGKECSIEEFELQSKESVHIVESEVDETTDQVVVEHHTQSPDIKNPDEYVCKCTINLLCYV,soluble
2,QVQLVASGGGSVQAGGSLRLSCAASGYTFSSYPMGWYRQAPGKECELSARIFSDGSANYADSVKGRFTISRDNAANTAYLQMDSLKPEDTAVYYCAAGPGSGKLVVAGRTCYGPNYWGQGTQVTVSS,soluble
3,QYAIERHFYSQDFSYISSKFNAIENELKSSLEDVFKQANNSTLYMWVFEGKLNVYQNSSLTIPQNRAYSISSPQVLNHERAIEWSEDSLNIRAFAFQAGEYQVVLGMSINHHILFLDKLD,not soluble
4,RAKGRFFYDKTSSQQPAIIVLSGSDGRIEKAQNIAQLLASHGFTTLALAYFGLEGLASHLEKIPLEIIQEAIDYLKKSPYADSIRLGLYGRSKGAEFALLAASHYADFKCLVLNSPSYLCLEGLKQWRNSKTSSWTYQGQELPYHPFLWKDFFQRLILKKDLKNINHQAVIPVEKINGSLLLLVSKKDEVWDAYGSAITIVNRLQQKRFKYPYQVESYENCGHMMTVAYQPNHRYKKVALEKIMADTNDSWQKTL,not soluble
5,RCFRLEQTQKDARVVSVHAAMSGRSTIGEQQGHSISWRRRLSRANTWPSAAKAQAYITNVATPALTQVAEELCRKGINARLVTTKTQAVEGLDLIVEMGSEQNFRYQLFPVCNPVPQFTRKANASEKETYYRLEVCDLTGSLGYDIYGYTQEQLIDNVLDLYERHLEFLHMHSDLPGSSDLSDGATPPLFS,not soluble
6,RDPIGYEKMFSKLRGGIVHARETAKRIAASPIVEQEGELCFTLYNAVGDSVLTSTGIIIHVGTMGSAIKYMVENNWEDNPGINDKDIFTNNDCAIGNVHPCDIMTLVPIFHDEKLIGWVGGVTHVIDTGSVTPGSMSTGQVQRFGDGYMITCRKTGANDESFKDWLHESQRSVRTPKYWILDERTRIAGCHMIRDLVMEVIKEDGIDSYMRFIDEVIEEGRRGLISRIKSMTIPGKYRKVAFVDVPYAHKDIGVCSEFAKLDTIMHSPVEITINKDATWKLDFDGASRWGWHSFNCNQVSFTSGIWVMMTQTLIPTSRINDGAYFATQFRLKKGTWMNPDDRRTGHAYAWHFLVSGWSALWRGLSQAYYSRGYLEEVNSGNANTSNWLQGGGINQDGEIHAVNSFETSSCGTGACAIKDGLNHAAAIWNPEGDMGDVEIWEMAEPLLYLGRNVKANTGGYGKYRGGNGFETLRMVWGAHDWTMFFMGNGYMNSDWGMMGGYPAASGYRFEAHNTDLKNRIKNNASLPLGGDFNPTDRDYEKHISHASQVKRDKQCITTENCFDNYDLYLNYIKGGPGFGDPIERDLNAILEDLNSKQL,not soluble
7,REGITKNPTKRIIKDVETVDYPEKLIVPYIDTVHDRIVLELFRGCTRGCRFCQAGMIYRPIREKSVKRLKEILDKLVKNTGYDEISLSSLSTSDYSKLSELTDYLVDEYASNNIGISLPSLRLDNFSMEIADKIQQVRKSGLTFAPEAGTQRLRDVINKGVTEEDLENATERAFEMGWNSVKLYFMIGLPTETYEDLDGIAKLAYKV,not soluble
8,RIDNRNDEILRITGNPYHPLSHQQHIPFETPVKDAYLSLAGEAGLDGRSTACARGNGMLEIRNSPYRITQPLKRVGKRGEGKWIPISYEQLIEEVVEGGDLFGEGHVDGLRDIRDLTTPVDPENPEYGPKANQLLMTNAGNEGRDDIFKRFAFNSYGTRNFGHHGSYCGYAFRAGSGAFMNDLDKNAHLKPDFDNAEYIIFIGMSPAQAGNPFKRQARQLANARTEGSLE,not soluble
9,RKIGTAFVMGDVEEVMSRSSQLVINPYHGHKEADRDIKNPENWESVMEFAQIDGVFVLDENGIIIACGRYIEASAKDLVSKIKRGLGGRHIACASITKETKAIAVVVSESGGDITVYKD,soluble
10,RKWAEDNEVQNCMACGKGFSVTVRRHHCRQCGNIFCAECSAKNALTPSSKKPVRVCDACFNDLQG,soluble
11,RLLLNGDGTPVGGAWNFDAENRKALPKGVAAPYPMRFSADAITRDVLTLVAERFASHYGSLDTFDYPVTQADAQALWEYFLDFGLAGFGDYQDAMATDEPFLFHARISAALNIGLLDLRQICSDVESAYWSGRVALNAAEGFIRQLIGWREYVRGVYWLKM,not soluble
12,RLVLAGNGMAGIRCIEEVLKLNRHMFEIVIFGSEPHPNYNRILLSSVLQGEASLDDITLNSKDWYDKHGITLYTGETVIQIDTDQQQVITDRKRTLSYDKLIVATGSSPHILPIPGADKKGVYGFRTIEDCQALMNMAQHFQKAAVIGAGLLGLEAAVGLQHLGMDVSVIHHSAGIMQKQLDQTAARLLQTELEQKGLTFLLEKDTVSISGATKADRIHFKDGSSLKADLIVMAAGVKPNIELAVSAGIKVNRGIIVNDFMQTSEPNIYAVGECAEHNGTVYGLVAPLYEQGKALASHICGVPCEEYQGSAPSAALKIAGIDVWSAGKIQEDERTTSIKIYDEQAGVYKKALFVDDKLRVILFGDTRDKQRLLDSLLKQRDISIAKKQIIEPETSGPLFESMPSSETICQCNTVTKGAIEDAVHTNSLTTVEEVKHCTKATGSCGGCKPLVEDLLRYMTNSEYTKPASTPSFCSCTDFTEDDIIAELQRRPFTNPAEVMNQLDWKTKNGCSTCVPAIQYYLEMLYPGFVQPEPATEETCILIPQMYGGRTNAEQLRTIANIIEAYSIPDVSITHGQRLKLSGIKPADLPNMKKDLKMPVYTNEHRHALQSIKACTCGQNRSIQQLAAQIERQLEMLPLPAPISISLSCETDCTEAALQDVGAIRTQAGWDIHIGGVRGTHARSGALFCVTENEDSTAGMIKGLIQYYRETDHYLEGVHQWIDRLGIVHIREVLFEEDLRAQLLESLQTDLSLIQNPTVETGAYKK,not soluble
13,RMSSQIRQNYSTDVEAAVNSLVNLYLQASYTYLSLGFYFDRDDVALEGVSHFFRELAEEKREGYERLLKMQNQRGGRALFQDIKKPAEDEWGKTPDAMKAAMALEKKLNQALLDLHALGSARTDPHLCDFLETHFLDEEVKLIKKMGDHLTNLHRLGGPEAGLGEYLSSKGSLSSTTKSLLSPATSEGPLAK,soluble
14,RPLQGEATNLTDNTIFRIRQLKGTWNLLIIDSGKCEEYCQEKLYTLRQVRLAQHVDKDKVQRVWLINDDIRPDQETIDKFKGTRLVLANGKDLLKEFPAENKREDHIYVVDPMGNLMMRYPRNADPRKMVGDLKRLLKLSHLEH,not soluble
15,RQDARERERLAVLAASRTALAPLDGPPQVLWTSDREEVLWASARTPDGLLVVPGTQGERVVRALDPATGDVVWERELLPPRDTAPAPNEDVAGASCVGHGAAGDLLACLASDAMTVFDERTTDIRYVAPTVVRLVLLDPQDGTVVADLSDAVAGTGTAPAYVALGDLVVVSSVVDDATRVVAVAPDGSVAWRTEVPPSTRPAPGLPGLRRADVLALGDHLVVATAEEMRLLDATGATVRTVPLADDESLGGAEGTTAFARTGLDRVTLMQVGSEVVARGEGTKVVRADHVGELPGGRVRADVDDGSDPRLVLTSDAEGLHGWDAEGVRRWSADVQVTRSAMVLAGRVHATTRADALVTFDARTGAELWRRDGLVLDQAPLADGRVLLVRERGADGAALDLVALDVADGEVAWRTPWPEGVDQLQAVFGVIVGLSYDVEGEDWSVTALG,not soluble
16,RQPEVRGGDTLNVFLAYVPEDAKAMMTTPFEAYLVNDSNYYLYYTYLSAEGKAWNNRSHGLVEPNTKLLLEEFTKDVLNEMERVAVQLIAFKDGKPAAIKPAVSVELRIDTVKFYKLHTFSASDFFEEPALIYDIVKDDVPAKQVYV,soluble
17,RQPSSLPEGLPAPLEKRVKELAQAARAAEGESRQKFFTQDINGILLDIEAQTRELSSQVRSGVYAYLASFLPCSKDALLKRARKLHLYEQGGRLKEPLQKLKEAIGRAMPEQMAKYQDECQAHTQAKVAKMLEEEKDKEQRDRICSDEEEDEEKGGRRIMGPRKKFQWNDEIRELLCQVVKIKLESQDLERNNKAQAWEDCVKGFLDAEVKPLWPKGWMQARTLFKESRRGHGHLTSILAKKKVMAPSKIKVKESSTKPDKKVSVPSGQIGGPIALPSDHQTGGLSIGASSRELPSQASGGLANPPPVNLEDSLDEDLIRNPASSVEAVSKELAALNSRAAGNS,not soluble
18,RRAKALLDFERHDDDELGFRKNDIITIISQKDEHCWVGELNGLRGWFPAKFVEVLDERSKEYSIA,soluble
19,RRKQQAPRRAAAYVSEELKAAALVDEGLDPEEHTADGEPSAKYMCPEKELARACPSYQNSPAAEFSCHEMDSESHISETSDRMADFESGSIKNEEETKEVTVPLEDTTVSDSLEQMKAVYNNFLSNSYWSNLNLNLHQPSSEKNNGSSSSSSSSSSSCGSGSFDWHQSAMAKTLQQVSQSRMLPEPSLFSTVQLYRQSSKLYGSIFTGASKFRCKDCSAAYDTLVELTVHMNETGHYRDDNHETDNNNPKRWSKPRKRSLLEMEGKEDAQKVLKCMYCGHSFESLQDLSVHMIKTKHYQKVPLKEPVTPVAAKIIPATRKKASLELELPSSPDSTGGTPKATISDTNDALQKNSNPYITPNNRYGHQNGASYAWHFEARKSQILKCMECGSSHDTLQELTAHMMVTGHFIKVTNSAMKKGKPIVETPVTPTITTLLDEKVQSVPLAATTFTSPSNTPASISPKLNVEVKKEVDKEKAVTDEKPKQKDKPGEEEEKCDISSKYHYLTENDLEESPKGGLDILKSLENTVTSAINKAQNGTPSWGGYPSIHAAYQLPNMMKLSLGSSGKSTPLKPMFGNSEIVSPTKNQTLVSPPSSQTSPMPKTNFHAMEELVKKVTEKVAKVEEKMKEPDGKLSPPKRATPSPCSSEVGEPIKMEASSDGGFRSQENSPSPPRDGCKDGSPLAEPVENGKELVKPLASSLSGSTAIITDHPPEQPFVNPLSALQSVMNIHLGKAAKPSLPALDPMSMLFKMSNSLAEKAAVATPPPLQSKKADHLDRYFYHVNNDQPIDLTKGKSDKGCSLGSVLLSPTSTAPATSSSTVTTAKTSAVVSFMSNSPLRENALSDISDMLKNLTESHTSKSSTPSSISEKSDIDGATLEEAEESTPAQKRKGRQSNWNPQHLLILQAQFAASLRQTSEGKYIMSDLSPQERMHISRFTGLSMTTISHWLANVKYQLRRTGGTKFLKNLDTGHPVFFCNDCASQIRTPSTYISHLESHLGFRLRDLSKLSTEQINSQIAQTKSPSEKMVTSSPEEDLGTSYQCKLCNRTFASKHAVKLHLSKTHGKSPEDHLLYVSELEKQ,soluble
20,RRRPLSCDAASQAGSNYPRCWNCGGPWGPGREDRFFCPQCRALQAPDPTRDYFSLMDCNRSFRVDTAKLQHRYQQLQRLVHPDFFSQRSQTEKDFSEKHSTLVNDAYKTLLAPLSRGLYLLKLHGIEIPERTDYEMDRQFLIEIMEINEKLAEAESEAAMKEIESIVKAKQKEFTDNVSSAFEQDDFEEAKEILTKMRYFSNIEEKIKLKKIPL,not soluble
